Patent EP3494999A1, “PSMA LIGANDS FOR IMAGING AND ENDORADIOTHERAPY” (Technische Universität München, priority 2017, dated 2019)
Square brackets hold non-standard residues; d marks the D form. Peptide text beside a SMILES is read from it. * marks the point of attachment. X1 = O=C(O)CC[C@H](NC(=O)N[C@@H](CCCCNC(=O)CCCCCCC(=O)*)C(=O)O)C(=O)O; DOTAGA = O=C(O)CN1CCN(CC(=O)O)CCN(C(CCC(=O)*)C(=O)O)CCN(CC(=O)O)CC1; dPhe(4-NH2) = Nc1ccc(C[C@@H](N)C(=O)O)cc1; dTyr(3-I) = N[C@H](Cc1ccc(O)c(I)c1)C(=O)O; Phe(4-NH2) = Nc1ccc(C[C@H](N)C(=O)O)cc1; d2Nal = N[C@H](Cc1ccc2ccccc2c1)C(=O)O

Legend:
[1] = molecular target: T1, human serum albumin (HSA) (Homo sapiens, UniProt P02768); type: in vitro ADME
T1 construct: purchased Daicel Chemical Industries, purchased from Chiral Technologies Europe (France)
Excerpt: The Fmoc-(9-fluorenylmethoxycarbonyl-) and all other protected amino acid analogs were purchased from Bachem (Bubendorf, Switzerland) or Iris Biotech (Marktredwitz, Germany). […] The tritylchloride polystyrene (TCP) resin was obtained from PepChem (Tubingen, Germany). Chematech (Dijon, France) delivered the chelator DOTAGA-anhydride. All necessary solvents and other organic reagents were purchased from either Alfa Aesar (Karlsruhe, Germany), Sigma-Aldrich (Munich, Germany) or VWR (Darmstadt, Germany). Solid phase synthesis of the peptides was carried out by manual operation using an Intelli-Mixer syringe shaker (Neolab, Heidelberg, Germany). […] Analysis of the peptides was performed by applying different gradients of 0.1% (v/v) trifluoroacetic acid (TFA) in H2O (solvent A) and 0.1% TFA (v/v) in acetonitrile (MeCN) (solvent B) with a constant flow of 1 mL/min (specific gradients are cited in the text). […] Human serum albumin (HSA) binding was determined using a Chiralpak HSA 50 x 3 mm 5µm Analytical Column connected to a Chiralpak HSA 10 x 3 mm 5µm Guard Cartridge (Daicel Chemical Industries) purchased from Chiral Technologies Europe (France). Nonlinear regression for the HSA binding was performed using OriginPro 2016G. Both retention times tR as well as the capacity factors K' are cited in the text. […] Radioactivity was detected through connection of the outlet of the UV-photometer to a Nal(TI) well-type scintillation counter from EG&G Ortec (Munich, Germany). […] ESI-mass spectra were acquired on an expression^L CMS mass spectrometer (Advion Ltd., Harlow, UK) and on a Varian 500-MS IT mass spectrometer (Agilent Technologies, Santa Clara, USA). For the HSA binding experiment a Chiralpak HSA 50 x 3 mm 5µm Analytical Column, (Daicel Chemical Industries, LTD) connected to a Chiralpak HSA 10 x 3 mm 5µm Guard Cartridge (Daicel Chemical Industries; Chiral Technologies Europe) was used.
The mobile phase was freshly prepared for each experiment and only used for one day. The column was kept at room temperature and each run was stopped after detection of the signal to reduce the acquisition time. All substances were dissolved in a 0.5mg/ml concentration in 50% 2-Propanol and 50% 50mM pH 6.9 ammonium acetate buffer. […] All nine reference substances were injected consecutively to establish a non-linear regression with OriginPro 2016G. […] Table 1: Reference substances used for the calibration of the HSA-column.

[2] = type: physicochemical
Description: To a volume of 500 µL n-octanol, 0.5 to 1.0 MBq of the radiolabeled PSMA inhibitor in 500 µL PBS (pH = 7.4) was added and rigorously vortexted for 3 min (n = 6). For quantitative phase separation, the mixture was centrifuged at 6,000 g for 5 min (Biofuge 15, Heraus Sepatech, Osterode, Germany).

[3] = design: species or system SCID mice; details: mouse, in vivo
Description: (§1) All animal experiments were carried out in accordance with the general animal welfare regulations in Germany (Deutsches Tierschutzgesetz, approval #55.2-1-54-2532-71-13). For the tumor model, LNCaP cells (approx. 10^7 cells) were suspended 1:1 in serum-free DMEM-F12 medium and Matrigel (BD Biosciences, Germany) and inoculated onto the right shoulder of male, 6 to 8 weeks old CB-17 SCID mice (Charles River Laboratories, Sulzfeld, Germany). Animals were used after the tumor size reached 4 to 8 mm in diameter for experiments.
Imaging experiments were conducted using a Siemens Inveon small animal PET and data analyzed by the associated Inveon Research Workplace software. Mice were anaesthetised with isoflurane and the ^68Ga-radiolabeled PSMA inhibitors (0.2 nmol, 7.0 to 12 MBq) were injected via tail vein. Dynamic imaging was carried out after on-bed injection for 90 min. The static blockade image was obtained, after 1 h p.i. with 15 min acquisition time. Blockade was done by coinjection of 8mg/kg of PMPA. All images were reconstructed using an OSEM3D algorithm without […] and attenuation correction.

[4] = system: LNCaP xenograft; design: species or system SCID mice; details: mouse, in vivo
Description: as §1

T1 sequence (P02768 25-609): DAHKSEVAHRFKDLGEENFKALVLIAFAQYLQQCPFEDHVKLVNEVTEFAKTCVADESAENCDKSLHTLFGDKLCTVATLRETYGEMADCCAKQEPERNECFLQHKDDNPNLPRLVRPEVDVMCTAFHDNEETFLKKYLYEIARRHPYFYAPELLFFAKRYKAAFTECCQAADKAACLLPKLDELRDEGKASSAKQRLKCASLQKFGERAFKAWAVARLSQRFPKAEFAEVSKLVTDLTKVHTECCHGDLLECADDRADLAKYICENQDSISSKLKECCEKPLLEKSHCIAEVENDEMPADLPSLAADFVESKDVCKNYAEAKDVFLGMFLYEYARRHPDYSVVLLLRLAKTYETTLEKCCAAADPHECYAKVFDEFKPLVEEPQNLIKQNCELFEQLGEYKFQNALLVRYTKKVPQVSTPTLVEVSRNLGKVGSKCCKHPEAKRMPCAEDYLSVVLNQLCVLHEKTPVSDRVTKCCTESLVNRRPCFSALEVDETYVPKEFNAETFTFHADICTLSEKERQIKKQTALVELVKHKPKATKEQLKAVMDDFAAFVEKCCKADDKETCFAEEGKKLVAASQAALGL

| Structure (SMILES) | HSA [%] [1] [%] | logP [2] | kidney clearance [3] | Increased tumor uptake [4] |
| --- | --- | --- | --- | --- |
| Nc1ccc(C[C@@H](NC(=O)CCC(C(=O)O)N2CCN(CC(=O)O)CCN(CC(=O)O)CCN(CC(=O)O)CC2)C(=O)N[C@H](Cc2ccc(O)c(I)c2)C(=O)N[C@H](Cc2ccccc2)C(=O)N[C@H](CCCCNC(=O)CCCCCCC(=O)NCCCC[C@H](NC(=O)N[C@@H](CCC(=O)O)C(=O)O)C(=O)O)C(=O)O)cc1 (stereo partly drawn) [[^nat/177Lu]PSMA-2, DOTAGA-(4-NH2)f-(l-y)-f-k-KuE, metal not drawn] ({DOTAGA}-[dPhe(4-NH2)][dTyr(3-I)][dF][dK](X1)-OH) | 82.5 | -4.11 ± 0.06 | accelerated kidney clearance | – |
| Nc1ccc(C[C@H](NC(=O)CCC(C(=O)O)N2CCN(CC(=O)O)CCN(CC(=O)O)CCN(CC(=O)O)CC2)C(=O)N[C@H](Cc2ccc(O)c(I)c2)C(=O)N[C@H](Cc2ccccc2)C(=O)N[C@H](CCCCNC(=O)CCCCCCC(=O)NCCCC[C@H](NC(=O)N[C@@H](CCC(=O)O)C(=O)O)C(=O)O)C(=O)O)cc1 (stereo partly drawn) [[^nat/177Lu]PSMA-3, DOTAGA-(4-NH2)F-(l-y)-f-k-KuE, metal not drawn] ({DOTAGA}-[Phe(4-NH2)][dTyr(3-I)][dF][dK](X1)-OH) | 91.9 | – | – | about 200% |
| O=C(O)CC[C@H](NC(=O)N[C@@H](CCCCNC(=O)CCCCCCC(=O)NCCCC[C@@H](NC(=O)[C@@H](Cc1ccc2ccccc2c1)NC(=O)[C@@H](Cc1ccc(O)cc1)NC(=O)CCC(C(=O)O)N1CCN(CC(=O)O)CCN(CC(=O)O)CCN(CC(=O)O)CC1)C(=O)O)C(=O)O)C(=O)O (stereo partly shown) [[^nat/177Lu]PSMA-4, DOTAGA-y-nal-k-KuE, metal not drawn, reference compound] | 82.6 | -4.11 ± 0.06 | – | – |
| Nc1ccc(C[C@H](NC(=O)CCC(C(=O)O)N2CCN(CC(=O)O)CCN(CC(=O)O)CCN(CC(=O)O)CC2)C(=O)N[C@H](Cc2ccc(O)cc2)C(=O)N[C@H](Cc2ccc3ccccc3c2)C(=O)N[C@H](CCCCNC(=O)CCCCCCC(=O)NCCCC[C@H](NC(=O)N[C@@H](CCC(=O)O)C(=O)O)C(=O)O)C(=O)O)cc1 (stereo partly shown) [[^nat/177Lu]PSMA-6, DOTAGA-(4-NH2)F-y-nal-k-KuE, metal not drawn] ({DOTAGA}-[Phe(4-NH2)][dY][d2Nal][dK](X1)-OH) | 83.17 | – | – | – |
| O=C(O)CC[C@H](NC(=O)N[C@@H](CCCCNC(=O)[C@@H](Cc1ccc(I)cc1)NC(=O)CCCC(=O)NCCCC[C@@H](NC(=O)[C@@H](Cc1ccc2ccccc2c1)NC(=O)[C@@H](Cc1ccc(O)cc1)NC(=O)CCC(C(=O)O)N1CCN(CC(=O)O)CCN(CC(=O)O)CCN(CC(=O)O)CC1)C(=O)O)C(=O)O)C(=O)O (stereo partly drawn) [[^nat/177Lu]PSMA-10, DOTAGA-y-nal-k(Glut-(l-f)-KuE), metal not drawn, reference compound] | 96.61 | -3.05 ± 0.02 | – | – |
